Among the data in CN114316037A are 最佳使用浓度 (concentration giving OD450 of 1.6) values, retold here.

Substrate in the test: O型口蹄疫病毒灭活抗原 (Foot-and-mouth disease virus, serotype O (strain not stated))

B1: 单克隆抗体m19 (O型口蹄疫病毒结构蛋白的单克隆抗体m19) (antibody, V domains shown)
VH: QVQLQQPGSELVRPGASVNLSCKASGYTFPSYWMHWVKQRPGQGLEWIGNIFPDGGFTNYDENFKSRATLTVDTSSSTAYMQLSSLTSEDSAVYYCTTIYDYVVGVGAMDYWGQGTSVTVSS
VL: DIVMTQSPAIMSASPGEKVTITCSASSSISYMYWFQQKTGTSPKLWIYKTSDLASGVPARFSGSGSGTSYSLTISRMEAEDAATYYCQQRNSYTFGGGTKLELK
For the molecule B1, the 最佳使用浓度 (concentration giving OD450 of 1.6) was 7 µg/mL.
